The text below walks through data of IntAct's records for PubMed 29656893.

First the molecules themselves.
B1: Shieldin complex subunit 3 (Homo sapiens), Q6ZNX1 (parent)
chain: MTTEVILHYRPCESDPTQLPKIAEKAIQDFPTRPLSRFIPWFPYDGSKLPLRPKRSPPVISEEAAEDVKQYLTISEHDAKSHSYDCTVDLLEFQPSLKKQHLTWSHTLKEQTNSGNLGKQSEKGKQHKRRSWSISLPSNNCTKNVSPLSKKLQDSLKALNLHSLYRARWTIEHTICNSQTLEDIWTKLNQIIRHNELPSCNATIQRHLGQIWVFCDIMYCEYVGSLLKGRLALTGKINLFVHKYGVIFSM

The variants in the experiment derive from B1. The conditions noted are these: with md2l2_human MAD2L2, Q9UI95.
Chain of md2l2_human MAD2L2, Q9UI95 (Q9UI95 whole entry): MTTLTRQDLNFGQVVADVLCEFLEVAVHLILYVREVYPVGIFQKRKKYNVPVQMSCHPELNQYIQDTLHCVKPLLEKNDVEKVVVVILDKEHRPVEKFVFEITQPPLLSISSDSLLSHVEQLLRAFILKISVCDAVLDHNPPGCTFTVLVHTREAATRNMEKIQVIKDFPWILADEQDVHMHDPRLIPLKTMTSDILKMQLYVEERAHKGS
MTTEVILHYRPCESDPTQLPKIAEKAIQDFPTRPLSRFIPWFPYDGSKLPLRAKRSPAVISEEAAEDVKQYLTISEHDAKSHSYDCTVDLLEFQPSLKKQHLTWSHTLKEQTNSGNLGKQSEKGKQHKRRSWSISLPSNNCTKNVSPLSKKLQDSLKALNLHSLYRARWTIEHTICNSQTLEDIWTKLNQIIRHNELPSCNATIQRHLGQIWVFCDIMYCEYVGSLLKGRLALTGKINLFVHKYGVIFSM [P53A;P58A]: the “effect of a mutation on the interaction” value was “disrupting interaction strength”.
